Source: patent publication US20180111967A1 (PIONEER HI BRED INTERNATIONAL, published 2018)

Target: the molecule itself
Assay: NMR solution structure (self-association, homodimer)
Protocol: For NMR data collection PIP-72Aa (SEQ ID NO: 2) was used at 0.7 mM formulated in 20 mM MES, pH 6.5, 100 mM NaCl, and 5 mM CaCl₂. D₂O and DSS (4,4-dimethyl-4-silapentane-1-sulfonic acid) were added to 10% and 50 μM final concentrations, respectively. This was then loaded into a 4 mm NMR tube (Shigemi). Data collection was at 25° C. on a Bruker 800 MHz spectrometer equipped with a cryo-probe (Monleon, D. et al. 2002, J Struct Funct Genomics 2: 93).
A NOESY peak list containing expected intra-residue, sequential and α-helical medium range NOE peaks was initially generated and manually edited by visual inspection of the simultaneous NOESY (100 ms mixing time) and 13C-edited aromatic NOESY (100 ms mixing time) spectra. NOEs were assigned using matching tolerances of 0.030, 0.025 and 0.40 ppm for indirect 1H, direct 1H and heavy atom 13C/15N, respectively. Subsequent manual peak picking was used to identify remaining, primarily long-range NOEs. In addition, backbone dihedral angle constraints were derived from chemical shifts (Shen, Y. et al. 2009 J Biomol NMR 44:213) for residues located in well-defined secondary structure elements. The initial structure was refined in explicit solvent using standard methods (Linge, J. P. et al. 2003 Proteins-Structure Function and Bioinformatics 50:496).

B1: PIP-72Aa (Pseudomonas Insecticidal Protein-72Aa) polypeptide of SEQ ID NO: 2 (other)
chain: MGITVTNNSSNPIEVAINHWGSDGDTSFFSVGNGKQETWDRSDSRGFVLSLKKNGAQHPYYVQASSKIEVDNNAVKDQGRLIEPLS
modifications: uniformly 15N,13C isotope labeled
notes: Insecticidal protein from Pseudomonas chlororaphis strain SS143D5; For NMR it was expressed in E. coli with an N-terminal His tag, which was removed by proteolysis, so untagged PIP-72Aa was used; also called IPD072Aa
binding result: binds
